Data on five substances can be found in patent US20110165679.

Assay in all cases: cell_activity
The subject of data set [1] is Lig3-4+ (engineered meganuclease variant). The following applies: 1 of 353 clones mutated; BMS maize cells.
Data set [2] relates to Lig3-4++ (engineered meganuclease variant). The following applies: 56 of 237 clones mutated; BMS maize cells.
The test system of data set [3] is Lig3-4 (engineered I-CreI-type single-chain meganuclease). As to conditions: 3 of 637 clones mutated; BMS maize cells.
The target in another data set is T1, I-CreI (UniProt P05725).
T1 sequence: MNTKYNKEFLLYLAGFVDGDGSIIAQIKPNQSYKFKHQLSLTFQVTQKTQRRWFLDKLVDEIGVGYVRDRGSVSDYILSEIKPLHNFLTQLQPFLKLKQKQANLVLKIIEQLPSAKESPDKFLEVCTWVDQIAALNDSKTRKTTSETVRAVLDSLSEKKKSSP
As to conditions: BMS maize cells.

Data set [4] deals with T2, I-SceI (maize codon-modified moI-SceI) (UniProt P03882).
T2 sequence: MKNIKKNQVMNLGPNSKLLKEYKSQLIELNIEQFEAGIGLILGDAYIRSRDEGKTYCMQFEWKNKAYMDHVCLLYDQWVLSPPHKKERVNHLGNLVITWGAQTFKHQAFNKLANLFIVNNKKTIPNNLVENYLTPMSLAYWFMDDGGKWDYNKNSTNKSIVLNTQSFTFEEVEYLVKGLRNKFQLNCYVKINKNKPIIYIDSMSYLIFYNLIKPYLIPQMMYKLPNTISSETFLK
As to conditions: BMS maize cells.

For “ATATACCTCACACGTACGCGTA (double strand) [LIG-1 site (near liguleless1)]”, the figures for the activity (% mutation rate) in data set [1], in data set [2] and in data set [3] were 0.3, 24 and 0.5, respectively. Turning to Double I-CreI site, the activity (% mutation rate) in the data set with I-CreI (50 of 66 clones mutated) was 76.

As for Double I-SceI site, in data set [4] (57 of 63 clones mutated), the activity (% mutation rate) amounted to 90. For the substance I-CreI site, the activity (% mutation rate) with I-CreI (318 of 904 clones mutated, 0 of 34 without endonuclease) worked out at 35. On to I-SceI site, for which, in data set [4] (49 of 58 clones mutated, T-DNA replicon assay, 0 of 34 without endonuclease), the activity (% mutation rate) was found to be 84.
